Paper PMC3431625

Target: Recombinant α2β1 integrin (UniProt P17301)
Assay: ELISA

Recombinant α2β1 integrin, sequence (P17301 30-1181, chain 1 of 2): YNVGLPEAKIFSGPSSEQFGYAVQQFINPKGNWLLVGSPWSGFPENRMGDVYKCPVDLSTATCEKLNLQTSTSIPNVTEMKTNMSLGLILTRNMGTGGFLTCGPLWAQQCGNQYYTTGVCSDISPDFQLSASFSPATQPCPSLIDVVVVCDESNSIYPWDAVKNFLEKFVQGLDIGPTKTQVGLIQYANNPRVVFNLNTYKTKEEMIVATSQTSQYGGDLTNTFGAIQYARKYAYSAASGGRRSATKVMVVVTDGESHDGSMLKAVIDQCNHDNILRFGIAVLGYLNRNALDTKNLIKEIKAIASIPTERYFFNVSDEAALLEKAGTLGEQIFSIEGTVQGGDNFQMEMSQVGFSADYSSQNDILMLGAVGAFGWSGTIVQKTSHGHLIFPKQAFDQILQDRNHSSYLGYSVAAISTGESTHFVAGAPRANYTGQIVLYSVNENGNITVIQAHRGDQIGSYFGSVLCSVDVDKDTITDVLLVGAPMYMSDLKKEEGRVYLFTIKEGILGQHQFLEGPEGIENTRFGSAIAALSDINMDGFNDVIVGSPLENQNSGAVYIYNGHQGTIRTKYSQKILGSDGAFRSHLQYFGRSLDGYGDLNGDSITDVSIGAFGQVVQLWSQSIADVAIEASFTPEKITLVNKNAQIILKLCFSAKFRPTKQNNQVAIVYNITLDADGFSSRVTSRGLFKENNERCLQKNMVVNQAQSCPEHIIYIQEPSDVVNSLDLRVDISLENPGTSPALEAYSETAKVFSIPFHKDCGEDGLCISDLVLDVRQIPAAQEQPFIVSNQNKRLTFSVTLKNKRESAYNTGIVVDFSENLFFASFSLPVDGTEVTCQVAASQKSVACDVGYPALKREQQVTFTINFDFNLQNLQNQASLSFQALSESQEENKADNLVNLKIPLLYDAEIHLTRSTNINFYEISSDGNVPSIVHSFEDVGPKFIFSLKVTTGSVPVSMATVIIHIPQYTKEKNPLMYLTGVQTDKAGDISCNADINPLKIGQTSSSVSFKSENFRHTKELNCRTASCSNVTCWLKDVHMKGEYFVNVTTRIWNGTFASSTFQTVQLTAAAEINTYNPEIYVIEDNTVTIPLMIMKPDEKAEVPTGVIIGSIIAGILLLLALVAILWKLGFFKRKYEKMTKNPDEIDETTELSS
Recombinant α2β1 integrin, sequence (P05556 21-798, chain 2 of 2, further chain): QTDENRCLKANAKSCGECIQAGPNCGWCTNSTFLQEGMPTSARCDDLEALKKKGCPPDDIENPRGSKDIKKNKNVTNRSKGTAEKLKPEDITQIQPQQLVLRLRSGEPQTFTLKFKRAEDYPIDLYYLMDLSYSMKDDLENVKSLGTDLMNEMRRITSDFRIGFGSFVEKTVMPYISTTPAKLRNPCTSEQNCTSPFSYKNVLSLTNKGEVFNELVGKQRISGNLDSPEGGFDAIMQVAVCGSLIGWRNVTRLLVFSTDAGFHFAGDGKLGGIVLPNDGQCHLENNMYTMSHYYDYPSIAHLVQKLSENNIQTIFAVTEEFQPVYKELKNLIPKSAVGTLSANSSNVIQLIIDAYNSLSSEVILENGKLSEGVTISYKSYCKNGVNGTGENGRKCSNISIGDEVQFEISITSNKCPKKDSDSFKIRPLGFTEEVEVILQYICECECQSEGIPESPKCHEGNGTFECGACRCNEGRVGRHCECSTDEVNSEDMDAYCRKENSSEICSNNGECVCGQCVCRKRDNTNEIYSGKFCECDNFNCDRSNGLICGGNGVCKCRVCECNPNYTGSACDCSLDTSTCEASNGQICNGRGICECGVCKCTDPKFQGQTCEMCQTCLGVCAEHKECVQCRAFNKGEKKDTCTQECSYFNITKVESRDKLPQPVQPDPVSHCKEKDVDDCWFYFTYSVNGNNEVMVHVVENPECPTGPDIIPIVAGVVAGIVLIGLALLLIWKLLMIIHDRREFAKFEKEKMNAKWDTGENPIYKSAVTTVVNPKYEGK

Biotinylated collagen type I (from UniProt P02453;P02465) (natural protein)
Kd: 1.5 nM
